The text below walks through data of article PMC9738047 (International Journal of Molecular Sciences, 2022).

The data set deals with the molecule itself. Nature of the data set: crystal structure; anti-IL-17A-76 and IL-17A mixed at molar ratio 2.3:1, complex isolated on Superdex G-75; vapor diffusion at 297 K; 2.85 A; molecular replacement with 4HSA and 6QKD.

B1: IL-17A (interleukin-17A) without N-signal sequence, double mutation N68D/C129S (ligand, UniProt Q16552 24-155, looked up)
chain: GITIPRNPGCPNSEDKNFPRTVMVNLNIHNRNTNTNPKRSSDYYDRSTSPWNLHRNEDPERYPSVIWEAKCRHLGCINADGNVDYHMNSVPIQQEILVLRREPPHSPNSFRLEKILVSVGCTCVTPIVHHVA
notes: Dimer in the crystal (monomer in the asymmetric unit, molecules A and A*); also called the cytokine
Regarding B1, the binding result was “binds”.
